Results published in the RNAGym collection of RNA variant scans (doi:10.1073/pnas.2313332121).

B1: TPR t1 (parent)
chain: GACCAAUCUGCCCUCAGAGCUCGAGAACAUCUUCGGAUGCAGAGGAGGCAGGCUUCGGUGGCGCGAUAGCGCCAACGUCCUCAACCUCCAAUGCAUCCCACCACAUGAUGAUGCCUGAAGAGCCUUGGUUUUUUG

Variants of: B1
Experiment: polymerase ribozyme fitness, log enrichment relative to wild type (log ratio); higher = more active; in vitro selection for triplet polymerase activity
Method in brief: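 Frozen incubation at −7 °C formed the core of a single, triplicate in vitro selection round applied to PCR-built, transcribed mutant libraries of each subunit of a heterodimeric triplet polymerase ribozyme. Extended constructs were gel-excised, captured with streptavidin beads and amplified by RT-PCR, and input and output libraries were Illumina-sequenced with a filter of ≥10 input reads and ≥1 read per output. Fitness is the logarithm of genotype enrichment relative to wild-type enrichment, with inverse-variance-weighted replicate averaging, and the logarithm is base 2.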

Variant	polymerase ribozyme fitness (log ratio)
G36A C40A C56U G110A U116A C124A U125G	-7.28
G36C U106G	-3.63
G36U A46U C72A C97U	-1.58
G36C G51A C70A C101U	-7.34
G36A G45U U59A C72G C97G C98U C102A A111G	-6.75
G35C C72U	-4.96
G36A A37G C70A	-3.19
C34U U112A G122A	-5.94
C34U C88U	-4.26
G36A G44A G61U G77U A84U	-3.54
G36A U81A	-1.3
G36C G51A C101U	-3.92
G36C C72G C102A	-4.94
G35A A108U G120C	-5.76
G36A U106A C124A U129G	0.262
G35C C114U	-5.79
G36A C72G G117A	-3.71
G36C U81A A84U	-2.7
G36C A37C A41G G61U	-4.4
C34U G48U	-4.63
G36U A41U	-2.77

Variant	polymerase ribozyme fitness (log ratio)
C34U A74U	-4.36
C34U A84U U131G	-5.95
G36A G61C	-2.63
C34U A84G C89G	-6.47
G35A C88U A121U	-1.91
G36C A37G C79A	-2.53
C34U C70G C72U	-7.09
G36C G47U U55G G61U C101U U132A	-3.11
G36A U55G G120C	0.249
G36A C49U C64U C86G U92C	-6.86
G35A G51A G60U C124U	-6.94
G35C G52U C53G A90G C98U	-6.7
C34U G47A C72U U78A C115A	-6.19
G36C G110A	-1.62
G36A G52A A66G	-2.6
G36A G47A G61U	-1.37
G36A G127C	-1.81
G36A G61U U96G	-1.71
G36U A46C	-2.09
G36A G58C U116G	-3.49
G36C A50C C114U	-6.09

Variant	polymerase ribozyme fitness (log ratio)
G35A G120C	-2.79
C34U G93A	-3.87
G35A G71A	-4.49
G36A U59C U126G	-2.55
G36C C49U A74G C101G A119U	-3.8
C34U U78C	-4.25
C34U U78A	-4.78
G36A C64U C88U C101G	-1.84
G36C G65U C72U G107A G117C G128A U133A	-7.08
G35U G69A A105C U106A G120U	-6.28
G35A G48A G71A C89A C99A C101U	-7.55
G36C U129A	-2.27
G36C G69U A91U C94A G113C	-3.07
G35U G42A	-6.8
G36A A68G	-3.57
G36C G39C C62U C124G U130G	-1.27
G35C C72U C114U	-6.13
G36U A50U A118U	-1.34
C34U C72G	-2.99
G35A G44U C115A C124G	-2.88
C34U C56A C114U	-4.57

Variant	polymerase ribozyme fitness (log ratio)
G35C A50G C53G U67G C124A G135U	-6.69
G35A G48C C56A C123G	-2.99
C34U G77A	-5.22
C34U C72A C123A	-5.4
G36U A37U	-1.98
C34U A50U C73U C115A A119G	-4.5
G36A A121U U133A	1.79
G36C C76G	-1.25
G36A G48A U112A U131C	0.386
G35C U59G C76A C98A	-5.8
G36A C86G	-2.04
G36A A37G A111G G113C A121C	-5.88
G35C A95U C99U C104A A111C	-6.57
G35C C73A	-5.42
G36A G42U	-2.99
G35A C49A G60U C86U C89A	-7.46
G35U A121G	-3.56
G36U A50C G60A	-2
G35A A66C G117U	-5.98
C34U C123U	-2.86
